Results reported in patent US20020061552A1 (published 2002).

T1: Myc-tagged mNkd protein, in vitro translated (mouse, UniProt Q99MH6 1-471, labelled with 35S-methionine)
T1 construct: Made with the TNT coupled reticulocyte lysate system in the presence of 35S-methionine; also called Myc-mNkd; 35S-mNkd; not shown: Myc tag
T1 sequence: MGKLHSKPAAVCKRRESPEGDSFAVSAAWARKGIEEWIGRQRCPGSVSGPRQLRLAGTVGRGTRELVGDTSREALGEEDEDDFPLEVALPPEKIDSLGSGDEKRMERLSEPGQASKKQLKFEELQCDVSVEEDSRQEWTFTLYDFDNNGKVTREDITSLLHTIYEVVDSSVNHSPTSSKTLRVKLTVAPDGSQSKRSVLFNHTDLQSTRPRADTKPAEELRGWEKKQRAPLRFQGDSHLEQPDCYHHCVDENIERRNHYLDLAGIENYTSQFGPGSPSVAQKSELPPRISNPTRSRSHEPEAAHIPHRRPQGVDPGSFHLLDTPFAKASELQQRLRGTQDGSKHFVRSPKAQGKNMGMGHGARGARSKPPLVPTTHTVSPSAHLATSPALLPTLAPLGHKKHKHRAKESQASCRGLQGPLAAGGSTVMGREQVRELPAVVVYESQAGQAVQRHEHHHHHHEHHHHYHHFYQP

B1: GST fusion of the PDZ domain of Drosophila Dvl (other, UniProt P51140 252-324, looked up)
chain: TVSINMEAVNFLGISIVGQSNRGGDGGIYVGSIMKGGAVALDGRIEPGDMILQVNDVNFENMTNDEAVRVLRE
notes: domain: PDZ; also called PDZ domain alone; not shown: glutathione-S-transferase (GST)

What was measured:
[1] = target: endogenous Dvl of HEK293 cells; experiment: cell-based or functional assay
[2] = target: T1, Myc-tagged mNkd protein, in vitro …; experiment: GST pull-down, electrophoresis and autoradiography
Text: The immunocomplexes were subjected to electrophoresis and autoradiography.

| Molecule | inhibition of the activation of the LEF-1 luciferase reporter by Wnt in HEK 293 cells [1] [%] | binding result [2] |
| --- | --- | --- |
| Xpress tagged mNkd (from UniProt Q99MH6 1-471) | 75 | – |
| B1 | – | no binding |
